{
  "source": "paper PMC3498290",
  "about": "“Mimicking Insect Communication: Release and Detection of Pheromone, Biosynthesized by an Alcohol Acetyl Transferase Immobilized in a Microreactor” (PLoS ONE, 2012)",
  "proteins": {"B1": {"name": "Acinetobacter wax synthase (atf, alcohol acetyl transferase; His6-tagged diacylglycerol acyl transferase) (Acinetobacter baylyi ADP1) (protein)", "chain": "MRPLHPIDFIFLSLEKRQQPMHVGGLFLFQIPDNAPDTFIQDLVNDIRISKSIPVPPFNNKLNGLFWDEDEEFDLDHHFRHIALPHPGRIRELLIYISQEHSTLLDRAKPLWTCNIIEGIEGNRFAMYFKIHHAMVDGVAGMRLIEKSLSHDVTEKSIVPPWCVEGKRAKRLREPKTGKIKKIMSGIKSQLQATPTVIQELSQTVFKDIGRNPDHVSSFQAPCSILNQRVSSSRRFAAQSFDLDRFRNIAKSLNVTINDVVLAVCSGALRAYLMSHNSLPSKPLIAMVPASIRNDDSDVSNRITMILANLATHKDDPLQRLEIIRRSVQNSKQRFKRMTSDQILNYSAVVYGPAGLNIISGMMPKRQAFNLVISNVPGPREPLYWNGAKLDALYPASIVLDGQALNITMTSYLDKLEVGLIACRNALPRMQNLLTHLEEEIQLFEGVIAKQEDIKTAN", "notes": "His6-tagged, pET23a, E. coli Rosetta(DE3)pLysS; Ni-NTA and gel filtration; tag kept; plasmid from S. Uthoff (Muenster)"}},
  "substrate": "CC/C=C/C=C\\CCCCCCCCO",
  "assay": "batch acetylation assay, Hanes-Woolf plot",
  "assay_type": "biochemical, Acinetobacter baylyi",
  "conditions": "free enzyme in batch, before immobilization; co-substrate acetyl-CoA (300 µM in the preliminary time course); alcohol 1.25 µM-1.3 mM",
  "data": [
    {"protein": "B1", "values": [
      {"measurement": "Km", "value": 1.63, "unit": "µM"}
    ]}
  ]
}
